Data as given in patent US20230037815A1.

Target: cynomolgus CD19 (cynomolgus)
Experiment: Octet HTX (ForteBio), IgG on AHC sensor, 1:1 fit

Binder | Kd [nM] | koff [s⁻¹]
CNG-CD19-703 (antibody, V domains shown) VH: QVQLQESGPGLVKPSQTLSLTCTVSGGSISTSTMGVGWIRQHPGKGLEWIGFIWWDDDKRYNPNLKSRVTMSVDTSKNQFSLKLSSVTAADTAVYYCARMELWSYYFEYWGQGTLVTVSS VL: EIVLTQSPATLSLSPGERATLSCSASSSVSYMHWYQQKPGQAPRLLIYDTSKLASGIPARFSGSGSGTDFTLTISSLEPEDFAVYYCFQGSVYPFTFGQGTKLEIK | 2.54 | 0.000352
CNG-CD19-7 (antibody, V domains shown) VH: QVQLQESGPGLVKPSQTLSLTCTVSGGSISTSGMGVGWIRQHPGKGLEWIGHIWWDDDKRYNPALKSRVTISVDTSKNQFSLKLSSVTAADTAVYYCARMELWSYYFDYWGQGTLVTVSS VL: EIVLTQSPATLSLSPGERATLSCSASSSVSYMHWYQQKPGQAPRLLIYDTSKLASGIPARFSGSGSGTDFTLTISSLEPEDFAVYYCFQGSVYPFTFGQGTKLEIK | 8.43 | 0.000832
CNG-CD19-705 (antibody, V domains shown) VH: QVQLQESGPGLVKPSQTLSLTCTVSGGSISTSGMGVGWIRQHPGKGLEWIGHIWWDDDKRYNPALKSRVTISVDTSKNQFSLKLSSVTAADTAVYYCARMELWSYYFDYWGQGTLVTVSS VL: EIVLTQSPATLSLSPGERATLSCSASSSVGYMHWYQQKPGQAPRLLIYDTSSLASGIPARFSGSGSGTDFTLTISSLEPEDFAVYYCFQGSVYPFTFGQGTKLEIK | 6.02 | 0.000837
CNG-CD19-102 (antibody, V domains shown) VH: QVQLVQSGAEVKKPGASVKVSCKASGYEFTDYIMHWVRQAPGQGLEWMGYINPYNDGSKYTEKFQPRVTMTSDTSISTAYMELSRLRSDDTAVYYCARGTYYYGPQLFDYWGQGTTVTVSS VL: DIVMTQTPLSLSVTPGQPASISCKSSQSLETSTGTTYLNWYLQKPGQSPQLLIYRVSKRFSGVPDRFSGSGSGTDFTLKISRVEAEDVGVYYCLQLLEDPYTFGQGTKLEIK | 12.1 | 0.00218
CNG-CD19-104 (antibody, V domains shown) VH: QVQLVQSGAEVKKPGASVKVSCKASGYDFTDYIVHWVRQAPGQGLEWMGYINPYNDGSKYTEKFQGRVTMTSDTSISTAYMELSRLRSDDTAVYYCARGTYYYGPELFDYWGQGTTVTVSS VL: DIVMTQTPLSLSVTPGQPASISCKSGQSLETSTGTTYLNWYLQKPGQSPQLLIYRVSRRFSGVPDRFSGSGSGTDFTLKISRVEAEDVGVYYCLQLLEDPYTFGQGTKLEIK | 5.83 | 0.00148
CNG-CD19-110 (antibody, V domains shown) VH: QVQLVQSGAEVKKPGASVKVSCKASGYTFTDYIMHWVRQAPGQGLEWMGYINPYNDGSKYTEKFQGRVTMTSDTSISTAYMELSRLRSDDTAVYYCARGTYYYGPQLFDYWGQGTTVTVSS VL: DIVMTQTPLSLSVTPGQPASISCKSSQSLETSTGTTYLNWYLQKPGQSPQLLIYRSSKRFSGVPDRFSGSGSGTDFTLKISRVEAEDVGVYYCLQLLEDPPTFGQGTKLEIK | 6.17 | 0.00164
CNG-CD19-1 (antibody, V domains shown) VH: QVQLVQSGAEVKKPGASVKVSCKASGYTFTDYIMHWVRQAPGQGLEWMGYINPYNDGSKYTEKFQGRVTMTSDTSISTAYMELSRLRSDDTAVYYCARGTYYYGPQLFDYWGQGTTVTVSS VL: DIVMTQTPLSLSVTPGQPASISCKSSQSLETSTGTTYLNWYLQKPGQSPQLLIYRVSKRFSGVPDRFSGSGSGTDFTLKISRVEAEDVGVYYCLQLLEDPYTFGQGTKLEIK | 9.39 | 0.00191
CNG-CD19-103 (antibody, V domains shown) VH: QVQLVQSGAEVKKPGASVKVSCKASGYTFTDYIMHWVRQAPGQGLEWMGYINPYNDGSKYTEKFQGRVTMTSDTSISTAYMELSRLRSDDTAVYYCARGTYYYGPQLFDYWGQGTTVTVSS VL: DIVMTQTPLSLSVTPGQPASISCKSSQSLETATGTTYLNWYLQKPGQSPQLLIYRVSRRFSGVPDRFSGSGSGTDFTLKISRVEAEDVGVYYCLQLLEDPYSFGQGTKLEIK | 4.69 | 0.00109
CNG-CD19-107 (antibody, V domains shown) VH: QVQLVQSGAEVKKPGASVKVSCKASGYDFTDYIMHWVRQAPGQGLEWMGYINPYNDGSKYTEKFQHRVTMTSDTSISTAYMELSRLRSDDTAVYYCARGTYYYGPQLFDYWGQGTTVTVSS VL: DIVMTQTPLSLSVTPGQPASISCKSSQSLETSTGTTYLNWYLQKPGQSPQLLIYRVSRRFSGVPDRFSGSGSGTDFTLKISRVEAEDVGVYYCLQLLEDPYTFGQGTKLEIK | 5.64 | 0.00129
CNG-CD19-101 (antibody, V domains shown) VH: QVQLVQSGAEVKKPGASVKVSCKASGYDFTDYIMHWVRQAPGQGLEWMGYINPYNDGSKYTDKFQERVTMTSDTSISTAYMELSRLRSDDTAVYYCARGTYYYGPELFDYWGQGTTVTVSS VL: DIVMTQTPLSLSVTPGQPASISCKSSQSLETTTGTTYLNWYLQKPGQSPQLLIYRASKRFSGVPDRFSGSGSGTDFTLKISRVEAEDVGVYYCLQLLEDPYTFGQGTKLEIK | 9.91 | 0.00233
CNG-CD19-109 (antibody, V domains shown) VH: QVQLVQSGAEVKKPGASVKVSCKASGYDFTDYIVHWVRQAPGQGLEWMGYINPYNDGSLYTEKFQGRVTMTSDTSISTAYMELSRLRSDDTAVYYCARGTYYYGPQLFDYWGQGTTVTVSS VL: DIVMTQTPLSLSVTPGQPASISCKSSQQLETSTGTTYLNWYLQKPGQSPQLLIYRASKRFSGVPDRFSGSGSGTDFTLKISRVEAEDVGVYYCLQLLEDPYSFGQGTKLEIK | 4.03 | 0.00131
CNG-CD19-106 (antibody, V domains shown) VH: QVQLVQSGAEVKKPGASVKVSCKASGYDFTDYIMHWVRQAPGQGLEWMGYINPYNDGSEYTEKFQGRVTMTSDTSISTAYMELSRLRSDDTAVYYCARGTYYYGPQLFDYWGQGTTVTVSS VL: DIVMTQTPLSLSVTPGQPASISCKSSQSLETATGTTYLNWYLQKPGQSPQLLIYRVSRRFSGVPDRFSGSGSGTDFTLKISRVEAEDVGVYYCLQLLEDPYTFGQGTKLEIK | 3.2 | 0.00123

Binders with a lower Kd, results first:

Kd [nM] | koff [s⁻¹] | Binder
2.25 | 0.00065 | CNG-CD19-108 (antibody, V domains shown) VH: QVQLVQSGAEVKKPGASVKVSCKASGYDFTDYIVHWVRQAPGQGLEWMGYINPYNDGSKYTEKFQGRVTMTSDTSISTAYMELSRLRSDDTAVYYCARGTYYYGPQLFDYWGQGTTVTVSS VL: DIVMTQTPLSLSVTPGQPASISCKSSQSLETVTGTTYLNWYLQKPGQSPQLLIYRVSKRFSGVPDRFSGSGSGTDFTLKISRVEAEDVGVYYCLQLLEDPPTFGQGTKLEIK
2.24 | 0.000679 | CNG-CD19-105 (antibody, V domains shown) VH: QVQLVQSGAEVKKPGASVKVSCKASGYEFTDYIMHWVRQAPGQGLEWMGYINPYNDGSKYTEKFEGRVTMTSDTSISTAYMELSRLRSDDTAVYYCARGTYYYGPELFDYWGQGTTVTVSS VL: DIVMTQTPLSLSVTPGQPASISCKSSQRLETSTGTTYLNWYLQKPGQSPQLLIYRVSRRFSGVPDRFSGSGSGTDFTLKISRVEAEDVGVYYCLQLLEDPPTFGQGTKLEIK
1.54 | 0.000328 | CNG-CD19-710 (antibody, V domains shown) VH: QVQLQESGPGLVKPSQTLSLTCTVSGVSISTSSMGVGWIRQHPGKGLEWIGHAWWDDDKRYNPALKSRVTISVDTSKNQFSLKLSSVTAADTAVYYCARMELWSYYFDPWGQGTLVTVSS VL: EIVLTQSPATLSLSPGERATLSCSASSSFSYMHWYQQKPGQAPRLLIYDTSKLASGIPARFSGSGSGTDFTLTISSLEPEDFAVYYCFQGSVYPFTFGQGTKLEIK
1.24 | 0.000194 | CNG-CD19-704 (antibody, V domains shown) VH: QVQLQESGPGLVKPSQTLSLTCTVSGGSIASGMGVGWIRQHPGKGLEWIGHIWWDDDKRYNPALKSRVTISVDTSKNQFSLKLSSVTAADTAVYYCARMELWSYYFDGWGQGTLVTVSS VL: EIVLTQSPATLSLSPGERATLSCSASSSVSYMHWYQQKPGQAPRLLIYDTSKLASGIPARFSGSGSGTDFTLTISSLEPEDFAVYYCFQGSVYPFTFGQGTKLEIK
1.02 | 0.000223 | CNG-CD19-708 (antibody, V domains shown) VH: QVQLQESGPGLVKPSQTLSLTCTVSGGSISTSTMGVGWIRQHPGKGLEWIGFIWWDDDKRYNPNLKSRVTMSVDTSKNQFSLKLSSVTAADTAVYYCARMELWSYYFDPWGQGTLVTVSS VL: EIVLTQSPATLSLSPGERATLSCSASSSVGYMHWYQQKPGQAPRLLIYDTSKLSSGIPARFSGSGSGTDFTLTISSLEPEDFAVYYCFQGSVYPFTFGQGTKLEIK
0.738 | 0.000207 | CNG-CD19-707 (antibody, V domains shown) VH: QVQLQESGPGLVKPSQTLSLTCTVSGGSISTSTMGVGWIRQHPGKGLEWIGFIWWDDDKRYNPNLKSRVTMSVDTSKNQFSLKLSSVTAADTAVYYCARMELWSYYFDPWGQGTLVTVSS VL: EIVLTQSPATLSLSPGERATLSCSASSSVGYMHWYQQKPGQAPRLLIYDTSKLASGIPARFSGSGSGTDFTLTISSLEPEDFAVYYCFQGSVYPFTFGQGTKLEIK
0.668 | 0.000168 | CNG-CD19-701 (antibody, V domains shown) VH: QVQLQESGPGLVKPSQTLSLTCTVSGGSISTSTMGVGWIRQHPGKGLEWIGFIWWDDDKRYNPNLKSRVTMSVDTSKNQFSLKLSSVTAADTAVYYCARMELWSYYFDYWGQGTLVTVSS VL: EIVLTQSPATLSLSPGERATLSCSASSSVGYMHWYQQKPGQAPRLLIYDTSKLASGIPARFSGSGSGTDFTLTISSLEPEDFAVYYCFQGSVYPFTFGQGTKLEIK
0.639 | 0.000168 | CNG-CD19-709 (antibody, V domains shown) VH: QVQLQESGPGLVKPSQTLSLTCTVSGGSISTSTMGVGWIRQHPGKGLEWIGFIWWDDDKRYNPNLKSRVTMSVDTSKNQFSLKLSSVTAADTAVYYCARMELWSYYFDPWGQGTLVTVSS VL: EIVLTQSPATLSLSPGERATLSCSASSSVGYMHWYQQKPGQAPRLLIYDTSKLAFGIPARFSGSGSGTDFTLTISSLEPEDFAVYYCFQGSVYPFTFGQGTKLEIK
0.372 | 0.00012 | CNG-CD19-706 (antibody, V domains shown) VH: QVQLQESGPGLVKPSQTLSLTCTVSGGSIASGMGVSWIRQHPGKGLEWIGHIWWDDDKRYNPALKSRVTISVDTSKNQFSLKLSSVTAADTAVYYCARMELWSYYFDPWGQGTLVTVSS VL: EIVLTQSPATLSLSPGERATLSCSASSSVGYMHWYQQKPGQAPRLLIYDTSKLASGIPARFSGSGSGTDFTLTISSLEPEDFAVYYCFQGSVYPFTFGQGTKLEIK
